In the supplement of paper PMC9876800:

Test system: peptide library, one residue held at a place counted from the S/T acceptor
Test: relative phosphorylation of the sub-library (ratio to the mean residue at this position); higher = residue favoured
Details: human
Outline: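 Each biotinylated degenerate peptide sub-library fixed one residue at one position around a central Ser/Thr and was incubated with a purified recombinant kinase, a human or orthologue construct, in 384-well plates. The 90 min reactions, under kinase-specific conditions, contained 50 μM peptide and 50 μM ATP spiked with γ-32P-ATP. Phosphorylation was read by phosphorimaging spots on streptavidin membranes and quantifying them by densitometry. Relative sub-library phosphorylation expresses each value as a ratio to the mean residue at that position.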

Chain of GRK6, construct: Full length (P43250 whole entry, looked up): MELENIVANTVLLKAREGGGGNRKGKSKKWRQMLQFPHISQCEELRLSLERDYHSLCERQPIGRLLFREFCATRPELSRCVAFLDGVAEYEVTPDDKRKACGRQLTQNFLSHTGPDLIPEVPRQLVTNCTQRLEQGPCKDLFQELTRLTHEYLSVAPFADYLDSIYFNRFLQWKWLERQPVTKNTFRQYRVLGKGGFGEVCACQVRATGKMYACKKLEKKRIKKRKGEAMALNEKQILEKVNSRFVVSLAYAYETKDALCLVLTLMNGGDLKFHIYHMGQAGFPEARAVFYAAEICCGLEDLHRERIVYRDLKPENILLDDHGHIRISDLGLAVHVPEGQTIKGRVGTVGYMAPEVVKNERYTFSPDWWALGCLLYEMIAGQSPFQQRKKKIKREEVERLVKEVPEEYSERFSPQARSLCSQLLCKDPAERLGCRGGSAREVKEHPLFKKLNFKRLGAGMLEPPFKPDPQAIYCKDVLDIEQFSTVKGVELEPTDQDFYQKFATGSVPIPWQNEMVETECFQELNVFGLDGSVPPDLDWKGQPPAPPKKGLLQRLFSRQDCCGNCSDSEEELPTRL
Chain of IRAK1, construct: aa186-530 (P51617 186-530, looked up): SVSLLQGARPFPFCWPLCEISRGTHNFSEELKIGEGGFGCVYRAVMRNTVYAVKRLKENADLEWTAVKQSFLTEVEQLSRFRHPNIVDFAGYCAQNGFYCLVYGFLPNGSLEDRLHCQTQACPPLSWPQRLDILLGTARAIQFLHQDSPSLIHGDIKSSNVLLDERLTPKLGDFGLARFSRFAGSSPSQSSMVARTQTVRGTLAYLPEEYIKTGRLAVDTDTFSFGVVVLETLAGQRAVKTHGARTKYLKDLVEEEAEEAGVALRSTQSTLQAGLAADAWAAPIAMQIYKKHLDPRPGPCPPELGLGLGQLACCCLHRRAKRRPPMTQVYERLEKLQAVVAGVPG
Chain of IKBKB, construct: Full length (O14920 whole entry, looked up): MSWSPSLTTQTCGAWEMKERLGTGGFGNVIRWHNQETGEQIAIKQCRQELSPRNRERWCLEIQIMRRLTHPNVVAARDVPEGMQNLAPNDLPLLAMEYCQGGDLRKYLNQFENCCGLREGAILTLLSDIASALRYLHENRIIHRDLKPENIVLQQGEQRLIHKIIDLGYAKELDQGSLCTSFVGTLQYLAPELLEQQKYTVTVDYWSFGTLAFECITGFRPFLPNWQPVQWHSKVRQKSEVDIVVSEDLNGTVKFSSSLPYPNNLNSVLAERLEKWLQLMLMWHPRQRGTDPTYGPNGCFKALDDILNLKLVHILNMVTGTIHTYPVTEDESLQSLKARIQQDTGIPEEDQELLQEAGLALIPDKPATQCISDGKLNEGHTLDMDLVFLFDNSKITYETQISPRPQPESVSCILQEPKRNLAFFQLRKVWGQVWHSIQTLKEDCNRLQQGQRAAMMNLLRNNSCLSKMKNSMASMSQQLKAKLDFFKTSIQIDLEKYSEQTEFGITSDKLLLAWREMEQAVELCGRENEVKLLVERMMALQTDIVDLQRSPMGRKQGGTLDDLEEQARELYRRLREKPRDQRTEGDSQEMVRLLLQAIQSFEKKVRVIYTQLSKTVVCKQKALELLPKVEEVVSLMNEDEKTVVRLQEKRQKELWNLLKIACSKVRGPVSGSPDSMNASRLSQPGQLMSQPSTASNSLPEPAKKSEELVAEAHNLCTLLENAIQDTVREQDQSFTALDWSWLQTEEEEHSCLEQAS
Chain of LATS1, construct: aa589-end (O95835 589-1130, looked up): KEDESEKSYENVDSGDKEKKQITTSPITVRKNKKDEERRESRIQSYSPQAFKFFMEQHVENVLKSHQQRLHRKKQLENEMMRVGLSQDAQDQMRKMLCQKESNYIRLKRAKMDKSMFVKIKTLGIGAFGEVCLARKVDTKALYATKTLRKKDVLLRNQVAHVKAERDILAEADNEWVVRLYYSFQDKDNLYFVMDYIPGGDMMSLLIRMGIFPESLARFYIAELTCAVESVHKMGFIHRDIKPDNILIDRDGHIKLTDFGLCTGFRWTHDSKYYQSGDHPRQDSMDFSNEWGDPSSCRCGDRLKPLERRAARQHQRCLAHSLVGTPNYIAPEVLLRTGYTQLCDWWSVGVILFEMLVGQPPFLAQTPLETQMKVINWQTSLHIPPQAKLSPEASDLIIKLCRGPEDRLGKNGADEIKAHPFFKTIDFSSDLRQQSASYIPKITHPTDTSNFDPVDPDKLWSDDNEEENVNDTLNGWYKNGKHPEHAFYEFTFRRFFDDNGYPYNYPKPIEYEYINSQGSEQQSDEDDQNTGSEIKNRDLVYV

GRK6, construct: Full length (from UniProt P43250)
relative phosphorylation
Details | at +1 | at +2 | at +3 | at +4 | at -1 | at -2 | at -3 | at -4 | at -5
A fixed | 0.673 | 1.15 | 0.704 | 0.819 | 0.727 | 0.898 | 0.871 | 1.07 | 1.01
D fixed | 1.13 | 1.55 | 2.51 | 2.04 | 1.42 | 0.993 | 1.73 | 1.37 | 1.41
E fixed | 2.44 | 1.11 | 3.21 | 1.96 | 1.35 | 1.02 | 1.66 | 1.44 | 1.31
F fixed | 1.1 | 0.983 | 0.866 | 0.826 | 0.903 | 1.19 | 0.803 | 0.781 | 1.03
G fixed | 0.61 | 0.867 | 0.716 | 0.91 | 0.601 | 0.761 | 0.793 | 0.935 | 0.932
H fixed | 0.721 | 0.978 | 0.758 | 0.914 | 1.35 | 0.895 | 0.92 | 1.01 | 0.988
I fixed | 1.44 | 1.17 | 0.665 | 0.78 | 0.817 | 0.848 | 0.778 | 0.951 | 1.06
K fixed | 0.654 | 0.7 | 0.59 | 0.796 | 0.854 | 0.878 | 0.806 | 0.955 | 0.873
L fixed | 1.11 | 0.765 | 0.695 | 0.764 | 1.1 | 1.88 | 0.914 | 0.98 | 0.879
M fixed | 1.25 | 0.954 | 0.78 | 0.946 | 0.948 | 1.09 | 0.852 | 0.953 | 0.882
N fixed | 0.771 | 0.893 | 0.726 | 0.864 | 1.29 | 1.02 | 1.08 | 1.03 | 0.988
P fixed | 0.36 | 0.512 | 0.631 | 1.16 | 0.692 | 0.599 | 0.716 | 0.88 | 0.864
Q fixed | 1.03 | 0.763 | 0.653 | 0.852 | 0.82 | 0.87 | 0.899 | 0.887 | 0.775
R fixed | 0.736 | 0.811 | 0.696 | 0.626 | 0.942 | 1.2 | 1.59 | 1 | 0.928
V fixed | 1.24 | 1.43 | 0.821 | 0.763 | 0.947 | 0.766 | 0.713 | 0.844 | 1.06
W fixed | 0.794 | 1.16 | 0.991 | 1.12 | 0.745 | 1.23 | 0.937 | 0.997 | 1.01
Y fixed | 0.944 | 1.19 | 0.985 | 0.858 | 1.5 | 0.863 | 0.93 | 0.922 | 0.999
pThr fixed | 2.88 | 1.34 | 1.58 | 3.36 | 0.96 | 1.16 | 2.9 | 1.6 | 1.52
pTyr fixed | 3.28 | 1.43 | 1.67 | 2.06 | 1.5 | 1.51 | 1.82 | 1.82 | 1.7

IKBKB, construct: Full length (from UniProt O14920)
relative phosphorylation
Details | at +1 | at +2 | at +3 | at +4 | at -1 | at -2 | at -3 | at -4 | at -5
A fixed | 0.6 | 0.901 | 1.06 | 1.08 | 0.811 | 0.919 | 0.94 | 1.15 | 1.22
D fixed | 0.469 | 1.2 | 1.65 | 1.46 | 1.1 | 0.397 | 0.912 | 1.57 | 1.71
E fixed | 0.544 | 1.27 | 1.65 | 1.43 | 0.941 | 0.805 | 1.05 | 1.8 | 1.52
F fixed | 1.55 | 0.676 | 1.01 | 0.834 | 0.909 | 2.22 | 1.07 | 0.751 | 0.995
G fixed | 1.12 | 1.2 | 1.46 | 1.09 | 0.478 | 0.442 | 1 | 1.24 | 1.23
H fixed | 0.745 | 1.39 | 1.11 | 0.922 | 1.21 | 1.47 | 1.19 | 0.94 | 1.01
I fixed | 2.06 | 0.812 | 0.71 | 0.769 | 0.89 | 1.11 | 0.762 | 0.749 | 0.741
K fixed | 0.268 | 0.805 | 0.68 | 0.827 | 1.03 | 0.408 | 0.878 | 0.741 | 0.714
L fixed | 2.05 | 0.783 | 0.816 | 0.81 | 1.22 | 1.48 | 0.699 | 0.754 | 0.687
M fixed | 1.66 | 0.701 | 0.8 | 0.995 | 1.09 | 1.16 | 0.764 | 0.907 | 0.738
N fixed | 0.613 | 1.5 | 1.1 | 1.08 | 1.15 | 1.06 | 1.01 | 0.988 | 1.03
P fixed | 0.228 | 1.13 | 0.931 | 1.43 | 1.06 | 0.371 | 1.31 | 1.17 | 0.973
Q fixed | 0.576 | 1.25 | 0.91 | 1.06 | 0.989 | 0.73 | 0.922 | 0.878 | 0.908
R fixed | 0.362 | 1.08 | 0.608 | 0.672 | 1.07 | 0.583 | 1.76 | 0.975 | 0.842
V fixed | 1.38 | 1.1 | 0.688 | 0.738 | 0.998 | 0.762 | 0.843 | 0.804 | 0.89
W fixed | 1.46 | 0.525 | 0.904 | 1.02 | 0.895 | 0.85 | 0.885 | 0.733 | 0.926
Y fixed | 1.33 | 0.665 | 0.917 | 0.773 | 1.16 | 2.23 | 1.01 | 0.851 | 0.864
pThr fixed | 0.817 | 1.38 | 0.898 | 1.53 | 1.01 | 1.08 | 1.55 | 1.97 | 1.93
pTyr fixed | 1.03 | 1.32 | 1.23 | 1.06 | 1.77 | 4.33 | 2.11 | 1.48 | 1.51

IRAK1, construct: aa186-530 (from UniProt P51617)
relative phosphorylation
Details | at +1 | at +2 | at +3 | at +4 | at -1 | at -2 | at -3 | at -4 | at -5
A fixed | 0.864 | 0.732 | 0.528 | 0.839 | 0.549 | 1.22 | 1.05 | 0.838 | 0.984
D fixed | 0.289 | 0.355 | 0.361 | 0.391 | 0.359 | 0.433 | 0.405 | 0.63 | 0.557
E fixed | 0.435 | 1.03 | 0.316 | 0.501 | 0.236 | 0.423 | 0.57 | 0.668 | 0.629
F fixed | 1.34 | 0.929 | 1.71 | 0.843 | 1.69 | 1.07 | 1.02 | 1.17 | 1.09
G fixed | 1.28 | 0.501 | 0.55 | 0.766 | 0.4 | 0.801 | 0.874 | 0.846 | 1.01
H fixed | 0.703 | 1.2 | 0.889 | 1.13 | 1.34 | 1.12 | 1.55 | 1.08 | 1.3
I fixed | 2.14 | 2.49 | 1.84 | 1.27 | 0.864 | 1.08 | 1.19 | 1.29 | 1.38
K fixed | 0.885 | 0.442 | 0.719 | 1.32 | 0.789 | 0.64 | 1.02 | 1.06 | 1.01
L fixed | 1.25 | 0.867 | 1.22 | 1.13 | 0.847 | 1.67 | 1.11 | 1.09 | 0.973
M fixed | 1.59 | 1.07 | 1.56 | 1.17 | 1.02 | 1.78 | 1.43 | 1.08 | 1.12
N fixed | 0.604 | 0.781 | 0.558 | 0.806 | 0.776 | 1.47 | 0.918 | 1.33 | 0.973
P fixed | 0.159 | 0.336 | 0.221 | 0.969 | 0.287 | 0.495 | 0.464 | 0.559 | 0.696
Q fixed | 1.08 | 0.734 | 0.567 | 0.766 | 0.527 | 0.957 | 0.954 | 0.813 | 0.845
R fixed | 1.05 | 0.633 | 1.04 | 1.75 | 1.53 | 1.16 | 1.5 | 0.988 | 1.29
V fixed | 1.69 | 1.95 | 1.07 | 0.745 | 0.863 | 0.788 | 0.849 | 1.16 | 1.07
W fixed | 0.854 | 1.37 | 2.17 | 1.54 | 2.85 | 0.745 | 0.9 | 1.11 | 0.809
Y fixed | 0.799 | 1.58 | 1.69 | 1.06 | 2.08 | 1.13 | 1.21 | 1.27 | 1.27
pThr fixed | 0.544 | 0.539 | 0.403 | 0.473 | 0.484 | 0.857 | 0.765 | 1.09 | 0.722
pTyr fixed | 0.357 | 0.562 | 0.482 | 0.464 | 0.522 | 0.756 | 1.19 | 0.831 | 0.843

LATS1, construct: aa589-end (from UniProt O95835)
relative phosphorylation
Details | at +1 | at +2 | at +3 | at +4 | at -1 | at -2 | at -3 | at -4 | at -5
A fixed | 0.659 | 0.785 | 0.976 | 0.856 | 0.615 | 0.872 | 0.639 | 1.08 | 0.8
D fixed | 1.01 | 1.11 | 1.46 | 1.45 | 1.88 | 1.91 | 1.24 | 0.946 | 1.01
E fixed | 1.3 | 2.1 | 1.28 | 1.52 | 0.865 | 1.3 | 0.564 | 0.822 | 0.706
F fixed | 0.776 | 0.66 | 0.867 | 0.785 | 0.27 | 0.756 | 0.375 | 0.839 | 0.611
G fixed | 0.751 | 0.85 | 1.17 | 1.34 | 1.3 | 0.893 | 0.853 | 1.04 | 1.09
H fixed | 0.946 | 1.2 | 1.03 | 1.22 | 0.891 | 0.974 | 1.2 | 1.6 | 4.19
I fixed | 0.957 | 1.34 | 0.784 | 0.743 | 0.21 | 0.298 | 0.257 | 0.481 | 0.476
K fixed | 1.23 | 0.623 | 1.27 | 0.844 | 2.38 | 1.36 | 1.78 | 1.15 | 0.971
L fixed | 1.46 | 1.29 | 0.961 | 0.707 | 0.438 | 0.373 | 0.312 | 0.62 | 0.52
M fixed | 1.8 | 0.941 | 0.791 | 0.994 | 0.667 | 0.692 | 0.427 | 0.8 | 0.74
N fixed | 0.907 | 1.12 | 0.955 | 1.26 | 1.2 | 1.08 | 0.765 | 0.939 | 0.868
P fixed | 0.648 | 0.816 | 1.08 | 0.982 | 3.01 | 0.99 | 2.34 | 1.42 | 0.834
Q fixed | 0.91 | 0.846 | 0.941 | 0.924 | 1.02 | 1.41 | 0.705 | 1.02 | 0.718
R fixed | 0.683 | 1.21 | 0.645 | 0.755 | 0.915 | 1.79 | 3.7 | 1.19 | 1.15
V fixed | 0.797 | 0.771 | 0.902 | 0.647 | 0.294 | 0.359 | 0.326 | 0.61 | 0.613
W fixed | 1.26 | 0.585 | 1.06 | 0.907 | 0.436 | 0.969 | 0.708 | 1.5 | 0.842
Y fixed | 0.9 | 0.754 | 0.827 | 1.07 | 0.604 | 0.978 | 0.824 | 0.931 | 0.863
pThr fixed | 1.2 | 1.09 | 1.2 | 2.38 | 0.769 | 0.586 | 0.536 | 0.599 | 0.598
pTyr fixed | 0.854 | 0.716 | 0.789 | 1.15 | 0.411 | 0.431 | 0.542 | 0.578 | 0.613
